We go through five molecules from paper PMC7319586.

The target of data set [1] is T1, Rv2827c (Mycobacterium tuberculosis (H37Rv), UniProt P71625 1-295).
T1 sequence: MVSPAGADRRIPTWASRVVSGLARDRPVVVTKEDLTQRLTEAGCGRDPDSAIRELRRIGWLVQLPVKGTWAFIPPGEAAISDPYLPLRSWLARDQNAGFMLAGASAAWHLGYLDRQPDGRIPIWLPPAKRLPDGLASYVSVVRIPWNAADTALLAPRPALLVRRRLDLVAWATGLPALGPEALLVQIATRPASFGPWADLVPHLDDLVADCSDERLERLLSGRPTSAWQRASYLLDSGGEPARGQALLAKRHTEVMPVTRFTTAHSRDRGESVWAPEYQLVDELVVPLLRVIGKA
As to the kind of experiment: EMSA. The following applies: protein: recombinant; tags: His6-SUMO removed by SENP; untagged; label: 5' 6-FAM on strand 2; blunt. (In EMSA bound probe runs differently from free probe, usually more slowly.)

The target of data set [2] is T2, Rv1044 (Mycobacterium tuberculosis (H37Rv), UniProt P96357 1-207).
T2 sequence: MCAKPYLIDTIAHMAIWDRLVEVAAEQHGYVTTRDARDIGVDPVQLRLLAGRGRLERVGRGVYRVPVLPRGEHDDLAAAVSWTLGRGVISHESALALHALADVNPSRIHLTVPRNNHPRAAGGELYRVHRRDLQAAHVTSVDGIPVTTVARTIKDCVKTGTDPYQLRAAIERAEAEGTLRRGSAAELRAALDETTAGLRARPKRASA
Nature of the data set: EMSA. The following applies: protein: recombinant; tags: His6-SUMO removed by SENP; untagged; chain copies: 2; label: 5' 6-FAM on strand 2; blunt.

The target in data set [3] is T1, Rv2827c. Nature of the data set: EMSA; weakly negative co-operativity. The following applies: protein: recombinant; tags: His6-SUMO removed by SENP; untagged; label: 5' 6-FAM on strand 2; blunt.
Data set [4] addresses T1, Rv2827c. As to the kind of experiment: EMSA; two binding events; not co-operative. The note with it: protein: recombinant; tags: His6-SUMO removed by SENP; untagged; label: 5' 6-FAM on strand 2; blunt.

B1: PabiEi -1 to -71 WT (IR1-IR2, TRB1061) (dsDNA)
DNA 1: AAAAGAAAATGTTGCTTTTATACCACAAATATTGTAAAATTGTAGTGTAAAAGCAACAAGTGGGGGGCCGTAAGCTTTTGTCAGTGCGCA
DNA 2: TGCGCACTGACAAAAGCTTACGGCCCCCCACTTGTTGCTTTTACACTACAATTTTACAATATTTGTGGTATAAAAGCAACATTTTCTTTT
As to B1, in data set [1], the binding result is on record as “no binding”.

B2: Prv1044 -61 to -131 WT (TRB1102) (dsDNA)
DNA 1: GTATCTGCGACAAGGGCAGCGTCGATGCCTCGACATGCAGAGTCGGTGTTCGCTTCACGCGAACTAGGCGCAAGCTTTTGTCAGTGCGCA
DNA 2: TGCGCACTGACAAAAGCTTGCGCCTAGTTCGCGTGAAGCGAACACCGACTCTGCATGTCGAGGCATCGACGCTGCCCTTGTCGCAGATAC
B2: the binding result in data set [2] was “no binding”.

B3: Prv2827c -61 to -131 WT (IR1-IR2, TRB1106) (dsDNA)
DNA 1: CAGGGCACTTGAGTTTGGAACGGGTTTCGTACTGTCACTGACCGAAGCCCGTTCCTAAATCAAGTGATTTCAAGCTTTTGTCAGTGCGCA
DNA 2: TGCGCACTGACAAAAGCTTGAAATCACTTGATTTAGGAACGGGCTTCGGTCAGTGACAGTACGAAACCCGTTCCAAACTCAAGTGCCCTG
Regarding B3, the binding result is “binds” in data set [3] and “no binding” in data set [2].

B4: Prv1044 -1 to -71 WT (TRB1086) (dsDNA)
DNA 1: AACTAGGCGCGCCTAGCCTGGACGAGTCCCCGGGCCGACATTCGCCCGAGGCCTTGGCCTCCATCACCTAAAAGCTTTTGTCAGTGCGCA
DNA 2: TGCGCACTGACAAAAGCTTTTAGGTGATGGAGGCCAAGGCCTCGGGCGAATGTCGGCCCGGGGACTCGTCCAGGCTAGGCGCGCCTAGTT
Consider B4, for which the binding result in data set [2] is recorded as “no binding”.

B5: Prv2827c -1 to -71 WT (IR3-IR4, TRB1104) (dsDNA)
DNA 1: CAAGTGATTTCTTGAGTTTGAACATTGTTGCGTACAGATATAGTATAGTTTCCGGTGTGAATTCAAGTTCGAAGCTTTTGTCAGTGCGCA
DNA 2: TGCGCACTGACAAAAGCTTCGAACTTGAATTCACACCGGAAACTATACTATATCTGTACGCAACAATGTTCAAACTCAAGAAATCACTTG
B5: the binding result in data set [4] is given as “binds”; in data set [2], “no binding”.
